In publication PMC9865144, “Crystal Structure of the SH3 Domain of ASAP1 in Complex with the Proline Rich Motif (PRM) of MICAL1 Reveals a Unique SH3/PRM Interaction Mode” (International Journal of Molecular Sciences, 2023):
Positions count from the first letter of the chain named. Names and notes keep the numbering of the source. Read-outs that look alike come from different tables or passages of the source. Blank lines part the entries; values can stand above or below the molecule they belong to.

Experiments:
APC PRM (Homo sapiens) = APC PRM (Homo sapiens) (UniProt P25054); conditions: cited from earlier work
[1] = target: T1, ASAP1-SH3 (residue 1087–1147) (mouse, UniProt Q9QWY8 1087-1147); test: ITC; PEAQ-ITC; 400 μM in the syringe, 40 μM in the cell; 50 mM Tris pH 7.5, 100 mM NaCl, 1 mM DTT, 1 mM EDTA; one-site binding model; conditions: both partners purified
T1 construct: ASAP1, mouse, SH3 domain, residue 1087-1147; The Trx-His6 tag is followed by a 3C protease cleavage site; The limits are stated for the crystallisation; also called SH3 domain of ASAP1; source: E. coli BL21(DE3), purified (Ni-NTA, Superdex-200 gel filtration)
T1 sequence (looked up): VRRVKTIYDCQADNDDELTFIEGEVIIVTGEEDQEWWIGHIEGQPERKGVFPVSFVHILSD

[2] = target: T2, GRAF2-SH3 (residue 728–786) (human, UniProt A1A4S6 728-786); test: as above; conditions: both partners purified
T2 construct: GRAF2 (GTPase Regulator associated with focal adhesion kinase 2), human, SH3 domain, residue 728-786; also called SH3^AGS of GRAF2; source: E. coli BL21(DE3), purified (Ni-NTA, Superdex-200 gel filtration)
T2 sequence (looked up): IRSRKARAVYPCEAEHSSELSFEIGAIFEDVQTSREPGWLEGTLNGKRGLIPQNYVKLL

[3] = target: T3, SKAP1-SH3 (residue 294–355) (human, UniProt Q86WV1 294-355); test: as above; conditions: both partners purified
T3 construct: SKAP1 (Src kinase associated phosphoprotein 1), human, SH3 domain, residue 294-355; also called SH3^AGS of SKAP1; source: E. coli BL21(DE3), purified (Ni-NTA, Superdex-200 gel filtration)
T3 sequence (looked up): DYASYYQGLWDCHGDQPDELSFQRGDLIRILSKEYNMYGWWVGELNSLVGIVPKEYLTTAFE

[4] = target: ASAP1-SH3 (residue 1087–1147) (mouse) (UniProt Q9QWY8); test: as above
[5] = target: T4, ASAP1-SH3 (residue 1087–1147) (mouse, UniProt Q9QWY8 1087-1147); test: ITC
T4 chain: T1 sequence (looked up)

[6] = target: T5, SKAP1-SH3 (residue 294–355) (human, UniProt Q86WV1 294-355); test: ITC
T5 chain: T3 sequence (looked up)

[7] = target: T4, ASAP1-SH3 (residue 1087–1147); test: ITC
[8] = target: T6, GRAF2-SH3 (residue 728–786) (human, UniProt A1A4S6 728-786); test: ITC
T6 chain: T2 sequence (looked up)

FAK1 = target: T7, FAK1 (Homo sapiens (Human), UniProt Q05397); test: ITC, Trx fusions
T7 chain: EAPPKPSRPGYPSPR

MICAL1 = target: T8, MICAL1 (Homo sapiens (Human), UniProt Q8TDZ2); test: ITC, Trx fusions
T8 chain: EPPPKPPRSCSALAR

FYB1 = target: T9, FYB1 (Homo sapiens (Human), UniProt O15117); test: ITC, Trx fusions
T9 chain: TLGPPPPKPNRPPNV

MICAL1-PRM, Q8TDZ2 = target: T10, MICAL1-PRM, Q8TDZ2; test: ITC; conditions: chain shown with the change
T10 chain: EPPPKPPRSCSALAR

[9] = target: T11, ASAP1-SH3 (residue 1087–1147), Q9QWY8; test: ITC; conditions: chain shown with the change
T11 chain: T1 sequence (looked up)

binding result [1]: binds
binding result [2]: binds
binding result [3]: binds
B1: FAK1-PRM (residue 710–724) (peptide, UniProt Q05397 710-724, looked up)
chain: EAPPKPSRPGYPSPR
notes: FAK1, human, proline rich motif, residue 710-724; also called PRM^Px+P from FAK1; source: E. coli BL21(DE3), purified (Ni-NTA, Superdex-200 gel filtration)

Kd [4]: 1 µM
Kd [5]: 0.8 µM
Molecule: EPPPKPPRSCSALAR [MICAL1-PRM]

Kd [6]: 0.29 µM
Kd [7]: 7.59 µM
Kd [8]: 3.14 µM
Molecule: RPPNVDLTKFHKTSS [FYB1-PRM (residue 362–376)]

Kd (FAK1): 7.08 µM
Kd (MICAL1): 5.99 µM
Kd (FYB1): 0.29 µM
B2: SKAP1_SH3 (protein)
chain: T3 sequence (looked up)

Kd (MICAL1-PRM, Q8TDZ2): 109 µM
B4: ASAP1-SH3 (residue 1087–1147), Q9QWY8 D1099K (protein)
chain: T1 sequence (looked up) with D13K

Kd [9]: 17 µM
Molecule: EPPPPPPRSCSALAR [MICAL1-PRM, Q8TDZ2 K832P]

Kd [9]: 0.35 µM
Molecule: EPPPRPPRSCSALAR [MICAL1-PRM, Q8TDZ2 K832R]

The next lines start with the molecule.

Molecule: ASAP1 SH3 (from UniProt Q9ULH1)
Kd (APC PRM (Homo sapiens)): 24 µM

B3: GRAF2_SH3 (protein)
chain: T2 sequence (looked up)
Kd (FAK1): 6.06 µM
Kd (MICAL1): 1.33 µM
Kd (FYB1): 3.14 µM

B5: ASAP1-SH3 (residue 1087–1147), Q9QWY8 C1096F (protein)
chain: T1 sequence (looked up) with C10F
Kd (MICAL1-PRM, Q8TDZ2): 15.7 µM

B6: ASAP1_SH3 (protein)
chain: T1 sequence (looked up)
Kd (FAK1): 1.97 µM
Kd (MICAL1): 0.82 µM
Kd (FYB1): 7.59 µM

B7: MICAL1-loop3 (domain or fragment)
chain: AEGSDRGPESPELPTPSENSMPPGLSTPTASQEGAGPVPDPSQPTRRQIRLSSPERQRLSSLNLTPDPEMEPPPKPPRSCSALARHALESSFVGWGLPVQSPQALVAMEKEEKESPFSSEEEEEDVPLDSDVEQALQTFAKTSGTMNNYPTWRRTLLRRA
Kd [5]: 1.1 µM
